Consider two molecules from patent publication US8460669B2, “Compositions and methods for identifying response targets and treating flavivirus infection responses” (Academia Sinica, priority 2005, dated 2013).

The experiment concerns the target T1, DVLR1/CLEC5A (Homo sapiens, UniProt Q9NY25).
T1 construct: endogenous in cells; host or cells: human CD14+ PBMC-derived macrophages (M-CSF, 6 days)
T1 sequence (Q9NY25 1-188): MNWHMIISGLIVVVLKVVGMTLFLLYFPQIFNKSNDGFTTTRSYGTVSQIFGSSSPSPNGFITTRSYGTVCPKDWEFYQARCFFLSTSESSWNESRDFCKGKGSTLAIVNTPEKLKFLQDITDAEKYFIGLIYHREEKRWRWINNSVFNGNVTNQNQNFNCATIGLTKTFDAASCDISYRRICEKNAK
Nature of the experiment: DV-induced TNF-α secretion from human macrophages with anti-DVLR1/CLEC5A mAbs. The experiment is classed as cell-based. Particulars: for TNF-α release from macrophages after infection with DEN1, DEN2, DEN3 and DEN4: dose-dependent manner, ELISA of culture supernatants. The text has this:
Monoclonal antibodies against DVLR1/CLEC5A were generated using standard techniques. Briefly, mice were immunized with DVLR-1.Fc fusion protein, and hybridomas were formed by fusing spienocytes from the mice with P3/NSI/1-Ag4-1 [NS-1] myeloma cells (ATCC TIB-18). Among the mAbs generated, clone 9B12, the subclones of 3E12 (clones 3E12A2, 3E12C1, 3E12G9), and clone 8H8F5 suppressed TNF-α release from macrophages after infection with DEN1 (strain 766733A), DEN2 (strain PL046), DEN3 (strain H-87), and DEN4 (strain 866146A) in a dose-dependent manner. […] In accordance with standard nomenclature, each antibody is referred to via the clone number of the hybridoma that secretes it.
According to embodiments illustrated in FIG. 19, DVLR1/CLEC5A is critical for DV-mediated TNF-α, but not IFN-α, secretion. More specifically, FIG. 19a illustrates the dose-dependency of DV and UV-DV induced TNF-α secretion by macrophages measured by ELISA at 6 h and 12 h p.i. FIG. 19b illustrates the kinetics of TNF-α expression after DV infection (m.o.i.=5). FIG. 19c illustrates the effects of DVLR1/CLEC5A and DC-SIGN shRNAs on the secretion of TNF-α, IL-6, MIP1-α, IL-8, IP-10, and IFN-α from DV-infected macrophages (m.o.i.=5). In FIG. 19d, knockdown experiments with receptor specific shRNAs illustrating that DV-induced IFN-α secretion is via the TLR7-MyD88 pathway and TNF-α secretion is via DVLR1/CLEC5A-TLR7-MyD88 pathway. FIG. 19e illustrates antagonistic anti-DVLR1/CLEC5A mAbs inhibiting TNF-α secretion in response to DV serotypes 1-4 is inhibited (see Table 3).
M.R. mAb (anti-mannose receptor mAb; mIgG1) and murine IgM (mIgM) were used as negative controls. In both FIG. 19d and FIG. 19e, macrophages were infected with DV (m.o.i.=5) and harvested at 36 h p.i. for cytokine assays. Data are expressed as mean±s.d. of three independent experiments (using material from at least three different donors). Two-tailed, Student's t-tests were performed. “ND” represents not detected.
Background: In an ELISA, binding on a coated surface is turned into a signal by an enzyme label.

Where [1] appears, read: antibody 10 μg/sample, p vs isotype control, m.o.i.=5, 36 h p.i.

Numbering of substitutions follows the chain as printed.

B1: 3E12A2: anti-human DVLR1/CLEC5A monoclonal antibody, subclone of 3E12; VH SEQ ID NO: 60, VL SEQ ID NO: 61 (antibody, V domains shown)
VH: QVQLEESGPELVKPGASVKLSCKASGYTFTEYIIHWVKQRSGQGLEWIGWFYPGSGSIKYNEKFKDKATLTADKSSSTVYMELSGLTSEDSAVYFCARHDGYSYFDYWGQGTTLTV
VL: QSPSSLAVSAGEKVTMSCKSSQSLLNSRTRKNYLAWYQQKPGQSPKLLIYWASTRESGVPDRFTGSGSGTDFTLTISSVQAEDLAVYYCKQSYNLYTFGGGTKLEIK
As to B1, the “TNF-α release from macrophages after infection with DEN1, DEN2, DEN3 and DEN4” value was “suppressed”. In addition, under setting [1], the “Antagonistic DV1 (suppression of DV-induced TNF-α secretion)” value is “** (“**” - p < 0.01)”, the “Antagonistic DV2 (suppression of DV-induced TNF-α secretion)” value was “** (“**” - p < 0.01)”, the “Antagonistic DV3 (suppression of DV-induced TNF-α secretion)” value is listed as “** (“**” - p < 0.01)” and the “Antagonistic DV4 (suppression of DV-induced TNF-α secretion)” value is listed as “* (“*” - p < 0.05)”.

B2: 3E12G9: anti-human DVLR1/CLEC5A monoclonal antibody, subclone of 3E12; VH SEQ ID NO: 62, VL SEQ ID NO: 63 (antibody, V domains shown)
VH: B1 VH with E6Q
VL: B1 VL
For the molecule B2, the “TNF-α release from macrophages after infection with DEN1, DEN2, DEN3 and DEN4” value is on record as “suppressed”. Under setting [1], the “Antagonistic DV2 (suppression of DV-induced TNF-α secretion)” value is “** (“**” - p < 0.01)” and the “Antagonistic DV3 (suppression of DV-induced TNF-α secretion)” value is reported as “** (“**” - p < 0.01)”.
